The values below come from patent US20110162109A1 (BASF PLANT SCIENCE, published 2011).

Series [1] deals with T1, HUB2, At1g55250, Arabidopsis thaliana (Arabidopsis thaliana, UniProt Q9C895 1-900).
T1 construct: As prey the endogenous protein of Arabidopsis cell culture; as bait N-terminal GS-TAP fusion; in yeast two-hybrid an AD fusion; also called AAG51572.1
T1 sequence: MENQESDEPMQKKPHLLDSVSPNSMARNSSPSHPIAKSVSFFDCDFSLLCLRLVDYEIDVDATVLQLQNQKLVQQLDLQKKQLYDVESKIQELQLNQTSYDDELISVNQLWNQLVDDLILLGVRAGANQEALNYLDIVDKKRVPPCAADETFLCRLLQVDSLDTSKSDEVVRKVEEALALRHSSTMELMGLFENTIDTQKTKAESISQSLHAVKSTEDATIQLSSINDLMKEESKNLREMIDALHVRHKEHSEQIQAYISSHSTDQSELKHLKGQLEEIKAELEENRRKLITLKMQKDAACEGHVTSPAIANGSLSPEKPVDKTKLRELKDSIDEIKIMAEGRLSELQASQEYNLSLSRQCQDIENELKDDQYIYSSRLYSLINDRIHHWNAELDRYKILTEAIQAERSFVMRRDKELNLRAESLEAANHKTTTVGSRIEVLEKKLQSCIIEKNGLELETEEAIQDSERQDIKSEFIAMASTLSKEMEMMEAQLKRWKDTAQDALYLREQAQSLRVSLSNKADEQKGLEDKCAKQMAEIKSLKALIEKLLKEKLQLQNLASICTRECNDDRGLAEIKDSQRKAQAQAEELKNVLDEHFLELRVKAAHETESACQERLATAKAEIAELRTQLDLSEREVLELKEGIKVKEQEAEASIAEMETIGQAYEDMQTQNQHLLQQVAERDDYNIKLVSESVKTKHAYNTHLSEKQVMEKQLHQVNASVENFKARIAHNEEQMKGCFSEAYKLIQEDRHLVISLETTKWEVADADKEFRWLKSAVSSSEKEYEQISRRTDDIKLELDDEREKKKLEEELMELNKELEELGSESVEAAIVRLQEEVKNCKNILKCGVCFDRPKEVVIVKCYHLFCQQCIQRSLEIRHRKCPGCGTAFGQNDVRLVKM
Kind of series: tandem affinity purification with NTAP-tagged HUB1pm. Here is the method: (§1) Because the RING proteins have their functionally important domain at the C-terminus, an N-terminal fusion was prepared instead of the traditional C-terminal fusion by cloning both full length and the point mutant form of HUB1 (HUB1pm, HUB1fl). The Arabidopsis cell cultures were transformed with the two constructs and cultivated on 10 litre scale, harvested and purified by TAP (Van Leene et al., Mol. Cell. Proteomics 6, 1226-38, 2007). The protein extracts were separated on 1-D SDS-PAGE gels and isolated from gel for protein identification by mass spectrometry (Laukens et al., Proteomics. 4, 720-7, 2004, Van Leene et al., 2007). Two cut offs were used resulting in “confirmed” and “to be confirmed” candidate interactor lists (Table I).
(§2) In the data set of confirmed interactors TAP HUB1 and HUB2 were present, […] the dimer formation between the homologues. In addition, the acetyltransferase GCN5, RNA binding proteins and a KH domain protein were identified as HUB1 interacting proteins. Most of these proteins are known to be localized in nucleus or nucleoli. GFP constructs of HUB1 have also been localized to nucleus (Liu et al., 2007). When HUB1pm was used for TAP purification no HUB2 could be identified as an interacting protein.

The target in the next series is T2, LUG/RON2, At4G32551 (Arabidopsis thaliana, UniProt Q9FUY2 1-931).
T2 construct: Endogenous prey in TAP; fusion protein in yeast two-hybrid
T2 sequence (looked up): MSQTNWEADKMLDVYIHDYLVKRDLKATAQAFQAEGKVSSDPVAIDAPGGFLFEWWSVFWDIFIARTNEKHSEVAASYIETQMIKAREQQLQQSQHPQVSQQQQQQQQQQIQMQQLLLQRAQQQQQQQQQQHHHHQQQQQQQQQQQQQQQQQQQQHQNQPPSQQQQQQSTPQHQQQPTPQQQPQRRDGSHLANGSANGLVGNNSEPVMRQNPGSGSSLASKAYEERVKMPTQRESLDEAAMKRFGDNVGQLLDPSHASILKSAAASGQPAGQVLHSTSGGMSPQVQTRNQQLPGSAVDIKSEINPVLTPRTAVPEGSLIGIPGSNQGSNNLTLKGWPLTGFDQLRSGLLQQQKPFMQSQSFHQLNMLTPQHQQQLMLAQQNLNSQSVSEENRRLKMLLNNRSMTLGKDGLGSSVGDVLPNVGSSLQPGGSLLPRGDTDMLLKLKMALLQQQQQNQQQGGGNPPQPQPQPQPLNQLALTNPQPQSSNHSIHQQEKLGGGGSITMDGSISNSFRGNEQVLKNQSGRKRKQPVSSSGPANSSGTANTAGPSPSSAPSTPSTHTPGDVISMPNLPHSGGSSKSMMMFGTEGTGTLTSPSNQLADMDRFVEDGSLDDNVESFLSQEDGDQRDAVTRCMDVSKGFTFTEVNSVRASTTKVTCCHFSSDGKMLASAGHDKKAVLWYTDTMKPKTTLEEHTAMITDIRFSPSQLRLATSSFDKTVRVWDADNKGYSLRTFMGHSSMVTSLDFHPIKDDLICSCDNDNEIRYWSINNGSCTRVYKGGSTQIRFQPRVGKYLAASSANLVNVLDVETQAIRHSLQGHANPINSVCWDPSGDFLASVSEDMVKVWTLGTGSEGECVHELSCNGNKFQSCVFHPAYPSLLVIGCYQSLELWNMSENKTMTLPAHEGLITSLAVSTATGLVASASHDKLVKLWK
The series can be described thus: yeast two-hybrid.

In series [2] the target is T3, HUB1 (Histone Monoubiquitination 1), At2g44950, Arabidopsis thaliana (Arabidopsis thaliana, UniProt Q8RXD6 1-878).
T3 construct: Full length HUB1; In the TAP experiments N-terminally fused to the TAP tag or the GS-TAP tag; in yeast two-hybrid fused to AD (pDEST22) or BD (pDEST32); all these constructs are written under this one entry; also called HUB1fl; full length HUB1
T3 sequence: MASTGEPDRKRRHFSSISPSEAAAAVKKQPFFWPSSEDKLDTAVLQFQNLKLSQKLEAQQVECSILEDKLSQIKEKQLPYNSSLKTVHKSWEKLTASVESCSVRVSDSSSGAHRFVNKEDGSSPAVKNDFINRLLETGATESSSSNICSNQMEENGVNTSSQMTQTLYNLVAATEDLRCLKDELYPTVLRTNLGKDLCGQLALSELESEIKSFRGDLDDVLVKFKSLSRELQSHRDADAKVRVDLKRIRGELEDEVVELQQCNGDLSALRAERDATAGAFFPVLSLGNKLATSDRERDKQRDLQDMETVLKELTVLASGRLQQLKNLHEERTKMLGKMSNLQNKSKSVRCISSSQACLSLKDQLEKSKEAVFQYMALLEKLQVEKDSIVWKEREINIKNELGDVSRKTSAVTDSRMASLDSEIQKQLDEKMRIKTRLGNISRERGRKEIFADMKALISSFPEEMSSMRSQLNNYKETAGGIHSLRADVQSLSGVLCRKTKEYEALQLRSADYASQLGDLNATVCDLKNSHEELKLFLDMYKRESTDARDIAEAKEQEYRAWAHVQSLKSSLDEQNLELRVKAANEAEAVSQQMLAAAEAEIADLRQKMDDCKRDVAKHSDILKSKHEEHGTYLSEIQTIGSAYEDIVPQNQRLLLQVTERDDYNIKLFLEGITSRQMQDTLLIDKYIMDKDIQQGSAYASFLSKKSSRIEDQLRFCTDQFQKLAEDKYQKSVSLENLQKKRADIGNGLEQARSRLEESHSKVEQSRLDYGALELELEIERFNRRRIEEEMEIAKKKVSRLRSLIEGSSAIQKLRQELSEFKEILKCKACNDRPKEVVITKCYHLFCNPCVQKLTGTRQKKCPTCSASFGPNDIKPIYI
The series can be described thus: TAP with N-terminally TAP-tagged HUB1, mass spectrometry; column To be confirmed (interacted only once). As for the experimental part: as §1, §2

Series [3] deals with UBC2, At2g02760 (Arabidopsis thaliana) (UniProt P42745). The series can be described thus: GS-TAP purification + MALDI-TOF-TOF MS, bait UBC2 (second block, as the rows stand); expectance is the MS identification score.
Chain of UBC2, At2g02760 (Arabidopsis thaliana) (P42745 whole entry): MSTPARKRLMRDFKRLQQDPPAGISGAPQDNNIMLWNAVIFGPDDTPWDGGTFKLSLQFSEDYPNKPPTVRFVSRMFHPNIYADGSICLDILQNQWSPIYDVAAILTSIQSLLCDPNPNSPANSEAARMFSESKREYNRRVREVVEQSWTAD

B1: HUB1pm (HUB1 point mutant, Cys residues nr 1 and 2 of the C3HC4 RING domain changed into Ser) (enzyme)
chain: MASTGEPDRKRRHFSSISPSEAAAAVKKQPFFWPSSEDKLDTAVLQFQNLKLSQKLEAQQVECSILEDKLSQIKEKQLPYNSSLKTVHKSWEKLTASVESCSVRVSDSSSGAHRFVNKEDGSSPAVKNDFINRLLETGATESSSSNICSNQMEENGVNTSSQMTQTLYNLVAATEDLRCLKDELYPTVLRTNLGKDLCGQLALSELESEIKSFRGDLDDVLVKFKSLSRELQSHRDADAKVRVDLKRIRGELEDEVVELQQCNGDLSALRAERDATAGAFFPVLSLGNKLATSDRERDKQRDLQDMETVLKELTVLASGRLQQLKNLHEERTKMLGKMSNLQNKSKSVRCISSSQACLSLKDQLEKSKEAVFQYMALLEKLQVEKDSIVWKEREINIKNELGDVSRKTSAVTDSRMASLDSEIQKQLDEKMRIKTRLGNISRERGRKEIFADMKALISSFPEEMSSMRSQLNNYKETAGGIHSLRADVQSLSGVLCRKTKEYEALQLRSADYASQLGDLNATVCDLKNSHEELKLFLDMYKRESTDARDIAEAKEQEYRAWAHVQSLKSSLDEQNLELRVKAANEAEAVSQQMLAAAEAEIADLRQKMDDCKRDVAKHSDILKSKHEEHGTYLSEIQTIGSAYEDIVPQNQRLLLQVTERDDYNIKLFLEGITSRQMQDTLLIDKYIMDKDIQQGSAYASFLSKKSSRIEDQLRFCTDQFQKLAEDKYQKSVSLENLQKKRADIGNGLEQARSRLEESHSKVEQSRLDYGALELELEIERFNRRRIEEEMEIAKKKVSRLRSLIEGSSAIQKLRQELSEFKEILKSKASNDRPKEVVITKCYHLFCNPCVQKLTGTRQKKCPTCSASFGPNDIKPIYI
notes: In TAP N-terminally TAP-tagged; also called HUBpm; At2g44950 Arabidopsis thaliana point mutation
For B1, the binding result in series [1] is “no binding”. For the same molecule, the “monoubiquitination of histone H2B in the in vitro ubiquitination assay (protein gel blot)” value with histone H2B is listed as “shift of H2B by 10 kDa”.

B2: SEUSS, At1g43850 (other, Arabidopsis thaliana, UniProt Q8W234 1-877, looked up)
chain: MVPSEPPNPVGGGENVPPSILGGQGGAPLPSQPAFPSLVSPRTQFGNNMSMSMLGNAPNISSLLNNQSFVNGIPGSMISMDTSGAESDPMSNVGFSGLSSFNASSMVSPRSSGQVQGQQFSNVSANQLLAEQQRNKKMETQSFQHGQQQSMQQQFSTVRGGGLAGVGPVKMEPGQVSNDQQHGQVQQQQQKMLRNLGSVKLEPQQIQAMRNLAQVKMEPQHSEQSLFLQQQQRQQQQQQQQQFLQMPGQSPQAQMNIFQQQRLMQLQQQQLLKSMPQQRPQLPQQFQQQNLPLRPPLKPVYEPGMGAQRLTQYMYRQQHRPEDNNIEFWRKFVAEYFAPNAKKRWCVSMYGSGRQTTGVFPQDVWHCEICNRKPGRGFEATAEVLPRLFKIKYESGTLEELLYVDMPRESQNSSGQIVLEYAKATQESVFEHLRVVRDGQLRIVFSPDLKIFSWEFCARRHEELIPRRLLIPQVSQLGSAAQKYQQAAQNATTDSALPELQNNCNMFVASARQLAKALEVPLVNDLGYTKRYVRCLQISEVVNSMKDLIDYSRETRTGPIESLAKFPRRTGPSSALPGPSPQQASDQLRQQQQQQQQQQQQQQQQQQQQQQQQTVSQNTNSDQSSRQVALMQGNPSNGVNYAFNAASASTSTSSIAGLIHQNSMKGRHQNAAYNPPNSPYGGNSVQMQSPSSSGTMVPSSSQQQHNLPTFQSPTSSSNNNNPSQNGIPSVNHMGSTNSPAMQQAGEVDGNESSSVQKILNEILMNNQAHNNSSGGSMVGHGSFGNDGKGQANVNSSGVLLMNGQVNNNNNTNIGGAGGFGGGIGQSMAANGINNINGNNSLMNGRVGMMVRDPNGQQDLGNQLLGAVNGFNNFDWNA
notes: As prey endogenous; as bait N-terminal GS-TAP fusion; in yeast two-hybrid an AD fusion
For the molecule B2, the binding result was “binds” with LUG/RON2, At4G32551 and “binds” in series [2]. Further, the Expectance in series [3] came out at 1e-24.
